According to publication PMC8368100, “Structural basis for ALK2/BMPR2 receptor complex signaling through kinase domain oligomerization” (Nature Communications, 2021):
Substitutions are numbered along the chain they refer to. Names and notes keep the numbering of the source.

Molecular target: T1, BMPR2 kinase domain (BMPR2^KD, residues 189-529) (human, UniProt Q13873 189-529)
T1 construct: BMPR2, type II BMP receptor, kinase domain, residues 189-529; TEV site between His tag and kinase domain; also called BMP receptor type II; source: BL21 E. coli, purified (Ni-NTA, TEV cleavage, SEC, Mono-Q); not shown: His tag, N-terminal, cleaved
T1 sequence (looked up): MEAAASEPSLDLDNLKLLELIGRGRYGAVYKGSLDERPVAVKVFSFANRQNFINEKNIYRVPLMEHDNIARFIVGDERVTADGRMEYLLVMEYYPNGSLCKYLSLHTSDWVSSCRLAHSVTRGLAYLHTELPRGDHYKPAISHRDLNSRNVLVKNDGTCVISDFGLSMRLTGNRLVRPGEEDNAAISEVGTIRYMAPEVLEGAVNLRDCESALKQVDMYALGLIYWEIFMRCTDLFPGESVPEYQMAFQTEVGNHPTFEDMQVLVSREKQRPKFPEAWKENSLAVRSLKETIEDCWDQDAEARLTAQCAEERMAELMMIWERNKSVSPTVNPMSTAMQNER
Test: SEC; Superdex 200 Increase 10/300 GL; kinase domains alone or as a stoichiometric mixture; also run in buffers with increasing NaCl
Settings: both partners purified

B1: ALK2 kinase domain (ALK2^KD, residues 201-499) (domain or fragment, human, UniProt Q04771 201-499, looked up)
chain: QRTVARQITLLECVGKGRYGEVWRGSWQGENVAVKIFSSRDEKSWFRETELYNTVMLRHENILGFIASDMTSRHSSTQLWLITHYHEMGSLYDYLQLTTLDTVSCLRIVLSIASGLAHLHIEIFGTQGKPAIAHRDLKSKNILVKKNGQCCIADLGLAVMHSQSTNQLDVGNNPRVGTKRYMAPEVLDETIQVDCFDSYKRVDIWAFGLVLWEVARRMVSNGIVEDYKPPFYDVVPNDPSFEDMRKVVCVDQQRPNIPNRWFSDPTLTSLAKLMKECWYQNPSARLTALRIKKTLTKID
notes: ALK2 (ACVR1), type I BMP receptor, kinase domain without the GS domain, residues 201-499; TEV site between His tag and kinase domain; also called ACVR1; ActRIA; source: SF9 insect cells, purified (Ni-NTA, TEV cleavage, SEC); not shown: His tag, N-terminal, cleaved
binding result: binds

B2: ALK2^KD-K492A (ALK2 kinase domain K492A) (domain or fragment, human, UniProt Q04771 201-499, looked up)
chain: B1 chain with K292A
notes: ALK2 (ACVR1) kinase domain, residues 201-499, K492A; source: SF9 insect cells, purified (Ni-NTA, TEV cleavage, SEC); not shown: His tag, N-terminal, cleaved
binding result: binds
